Reference: publication PMC12083643, “Closed State Structure of the Pore Revealed by Uncoupled Shaker K+ Channel” (Research Square, 2025)

Biological target: the molecule itself
Assay: cryo-EM structure; single-particle cryo-EM of the purified channel in 0.02% GDN, 150 mM KCl, 2 mM TCEP, 1 mM EDTA, 50 mM TRIS pH 7.5; about 0.7 mg/mL; refinement with C4 symmetry

B1: Shaker-IR-I384R (natural protein, UniProt P08510 1-655, looked up)
chain: MAAVALREQQLQRNSLDGYGSLPKLSSQDEEGGAGHGFGGGPQHFEPIPHDHDFCERVVINVSGLRFETQLRTLNQFPDTLLGDPARRLRYFDPLRNEYFFDRSRPSFDAILYYYQSGGRLRRPVNVPLDVFSEEIKFYELGDQAINKFREDEGFIKEEERPLPDNEKQRKVWLLFEYPESSQAARVVAIISVFVILLSIVIFCLETLPEFKHYKVFNTTTNGTKIEEDEVPDITDPFFLIETLCIIWFTFELTVRFLACPNKLNFCRDVMNVIDIIAIIPYFITLATVVAEEEDTLNLPKAPVSPQDKSSNQAMSLAILRVIRLVRVFRIFKLSRHSKGLQRLGRTLKASMRELGLLIFFLFIGVVLFSSAVYFAEAGSENSFFKSIPDAFWWAVVTMTTVGYGDMTPVGVWGKIVGSLCAIAGVLTIALPVPVIVSNFNYFYHRETDQEEMQSQNFNHVTSCPYLPGTLGQHMKKSSLSESSSDMMDLDDGVESTPGLTETHPGRSAVAPFLGAQQQQQQPVASSLSMSIDKQLQHPLQQLTQTQLYQQQQQQQQQQQNGFKQQQQQTQQQLQQQQSHTINASAAAATSGSGSSGLTMRHNNALAVSIETDV
notes: Subcloned into a modified pEG BacMam vector with a C-terminal HRV 3C protease site, eGFP and 8x-His; the channel was released from the beads by HRV 3C protease; PDB 7SIP (Shaker-IR without I384R) was the template for model building; also called uncoupled channel; uncoupled I384R mutant; not shown: eGFP, C-terminal, cleaved; 8x-His, C-terminal, cleaved
- stoichiometry N: 4
